Data taken from patent publication US20180355059A1 (PHARMAEXPLORER, published 2018).

How the values were obtained:
[1] = biological target: T1, recombinant cyno monkey PCSK9 protein (cyno monkey, UniProt A8T666 31-692 (rhesus entry), limits assumed, biotin-labelled in the ELISA (Biotin labeling kit)); test: ELISA, biotin-cyno PCSK9 on streptavidin plate; antibody 0 nM (blank)
T1 construct: also called cyno PCSK9; Cyno Monkey PCSK9-His
Protocol: (§1) The next day, the plates were washed twice with wash buffer [0.01% (v/v) Tween 20], then blocked with blocking buffer [0.01% (v/v) 0.1% BSA (w/w) Tween 20] at room temperature for 2 hours. […] Unbound PCSK9 proteins were removed by washing the plate three times with wash buffer [0.01% (v/v) Tween 20]. […] The plates were washed twice with wash buffer [0.01% (v/v) Tween 20], and 200 uL HRP-conjugated secondary antibody (Sigma) was added to each well and incubated for 2 hours at 37° C. After the plates were washed three times with wash buffer, 100 ul TMB substrate were added to each well and incubated for 30 minutes at room temperature. 100 ul stop solution (0.1N HCl) were added to each well to stop the reaction.

[2] = biological target: T2, recombinant human PCSK9 protein, His-tagged (Immunogen A, hPCSK9-His) (human, UniProt Q8NBP7 31-692, limits assumed, biotin-labelled in the ELISA and blocking assays (Biotin labeling kit)); test: ELISA, biotin-hPCSK9-His on streptavidin plate; antibody 0.067 nM
T2 construct: also called human PCSK9-His; recombinant hPCSK9-His; not shown: His tag

[3] = biological target: T2, recombinant human PCSK9 protein, …; test: blocking ELISA, biotin-hPCSK9-His on coated LDLR ECD-His; antibody 0.32 nM
Protocol: (§2) Purified LDLR^ECD-His was diluted with PBS to a final concentration of 1.0 ug/ml, and 100 uL of diluted LDLR^ECD-His were added to each well of 96-well plate that was then sealed with plastic film and incubated at 4° C. overnight. The plate was washed twice with wash buffer [PBS+0.01% (v/v) Tween 20] and incubated with blocking buffer [PBS+0.01% (v/v) BSA+1% Tween20 (w/w)] at room temperature for 2 hours. […] The plate was washed three times with wash buffer [0.01% (v/v) Tween 20]. 100 uL HRP-conjugated streptavidin (Sigma) were then added to each well and incubated at 37° C. for 1 hour. The plate was then washed three times with wash buffer, and 100 uL TMB substrate were added to each well. After 15 minutes of incubation at room temperature, the reaction was stopped by adding 50 uL stop solution (0.1N HCl).

[4] = biological target: T2, recombinant human PCSK9 protein, …; test: blocking ELISA, biotin-hPCSK9-His on coated LDLR ECD-His; antibody 40 nM
Protocol: as §2

[5] = biological target: T2, recombinant human PCSK9 protein, …; test: ELISA, biotin-hPCSK9-His on streptavidin plate; antibody 0.0067 nM
Protocol: as §1

[6] = biological target: T2, recombinant human PCSK9 protein, …; test: blocking ELISA, biotin-hPCSK9-His on coated LDLR ECD-His; antibody 8 nM
Protocol: as §2

[7] = biological target: T2, recombinant human PCSK9 protein, …; test: ELISA, biotin-hPCSK9-His on streptavidin plate; antibody 0.00067 nM
Protocol: as §1

[8] = biological target: T2, recombinant human PCSK9 protein, …; test: blocking ELISA, biotin-hPCSK9-His on coated LDLR ECD-His; antibody 200 nM
Protocol: as §2

[9] = biological target: T2, recombinant human PCSK9 protein, …; test: ELISA, biotin-hPCSK9-His on streptavidin plate; antibody 66.67 nM
Protocol: as §1

[10] = biological target: T1, recombinant cyno monkey PCSK9 protein; test: ELISA, biotin-cyno PCSK9 on streptavidin plate; antibody 0.67 nM
Protocol: as §1

[11] = biological target: T2, recombinant human PCSK9 protein, …; test: ELISA, biotin-hPCSK9-His on streptavidin plate; antibody 0 nM (blank)
Protocol: as §1

[12] = biological target: T2, recombinant human PCSK9 protein, …; test: blocking ELISA, biotin-hPCSK9-His on coated LDLR ECD-His; antibody 0.06 nM
Protocol: as §2

[13] = biological target: T2, recombinant human PCSK9 protein, …; test: ELISA, biotin-hPCSK9-His on streptavidin plate; antibody 6.67 nM
Protocol: as §1

[14] = biological target: T1, recombinant cyno monkey PCSK9 protein; test: ELISA, biotin-cyno PCSK9 on streptavidin plate; antibody 0.00067 nM
Protocol: as §1

[15] = biological target: T1, recombinant cyno monkey PCSK9 protein; test: ELISA, biotin-cyno PCSK9 on streptavidin plate; antibody 0.067 nM
Protocol: as §1

[16] = biological target: T1, recombinant cyno monkey PCSK9 protein; test: ELISA, biotin-cyno PCSK9 on streptavidin plate; antibody 0.0067 nM
Protocol: as §1

[17] = biological target: T2, recombinant human PCSK9 protein, …; test: ELISA, biotin-hPCSK9-His on streptavidin plate; antibody 0.000067 nM
Protocol: as §1

[18] = biological target: T1, recombinant cyno monkey PCSK9 protein; test: ELISA, biotin-cyno PCSK9 on streptavidin plate; antibody 66.67 nM
Protocol: as §1

[19] = biological target: T1, recombinant cyno monkey PCSK9 protein; test: ELISA, biotin-cyno PCSK9 on streptavidin plate; antibody 0.000067 nM
Protocol: as §1

[20] = biological target: T2, recombinant human PCSK9 protein, …; test: ELISA, biotin-hPCSK9-His on streptavidin plate; antibody 0.67 nM
Protocol: as §1

[21] = biological target: T2, recombinant human PCSK9 protein, …; test: blocking ELISA, biotin-hPCSK9-His on coated LDLR ECD-His; antibody 0.01 nM
Protocol: as §2

[22] = biological target: T1, recombinant cyno monkey PCSK9 protein; test: ELISA, biotin-cyno PCSK9 on streptavidin plate; antibody 6.67 nM
Protocol: as §1

[23] = biological target: T2, recombinant human PCSK9 protein, …; test: blocking ELISA, biotin-hPCSK9-His on coated LDLR ECD-His; antibody 1.6 nM
Protocol: as §2

T1 sequence (A8T666 31-692 limits assumed): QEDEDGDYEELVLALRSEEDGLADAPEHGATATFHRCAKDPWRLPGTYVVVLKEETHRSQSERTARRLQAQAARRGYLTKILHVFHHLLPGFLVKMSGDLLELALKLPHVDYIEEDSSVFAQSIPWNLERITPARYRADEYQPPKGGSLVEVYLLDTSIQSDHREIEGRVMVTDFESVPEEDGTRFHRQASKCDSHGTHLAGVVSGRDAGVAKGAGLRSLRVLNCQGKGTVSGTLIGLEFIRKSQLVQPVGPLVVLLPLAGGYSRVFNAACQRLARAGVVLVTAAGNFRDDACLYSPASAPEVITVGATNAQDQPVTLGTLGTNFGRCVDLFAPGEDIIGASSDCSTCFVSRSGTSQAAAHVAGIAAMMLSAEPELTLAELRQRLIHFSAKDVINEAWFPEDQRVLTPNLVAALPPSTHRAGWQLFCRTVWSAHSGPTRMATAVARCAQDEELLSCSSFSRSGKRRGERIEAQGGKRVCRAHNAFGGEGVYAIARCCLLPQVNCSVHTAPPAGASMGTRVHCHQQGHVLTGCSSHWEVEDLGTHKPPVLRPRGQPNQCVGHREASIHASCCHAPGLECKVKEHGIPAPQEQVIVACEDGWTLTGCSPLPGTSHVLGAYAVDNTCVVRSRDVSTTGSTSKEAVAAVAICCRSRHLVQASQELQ

B1: 152G2F7, chimeric anti-PCSK9 mAb purified from hybridoma (antibody, V domains shown)
VH: EVQLVESGGGLVQPGGSLRLSCAASEFTFGGYWMTWVRQAPGKGLEWVANIKQDGSEKYYVDSVKGRFTISRDNAKNSLYLHMNSLRAEDTAVYYCARDRTTMIRGVSLYYYYYGMDVWGQGTAVTVSS
VL: EIVLTQSPATLSLSPGERATLSCRASQSVSSYLAWYQQKPGQAPRLLIYDASNRATGIPARFSGSGSGTDFTLTISSLEPEDFAVYYCQQRSNWPLTFGGGTKVEIK
notes: From Harbour H2L2 mice: human variable regions, rat constant regions
OD450 nm [1]: 0.33 OD450 nm | OD450 nm [2]: 0.6 OD450 nm | OD450 nm (PCSK9 bound to LDLR) [3]: 1.17 OD450 nm | OD450 nm (PCSK9 bound to LDLR) [4]: 0.74 OD450 nm | OD450 nm [5]: 0.25 OD450 nm | OD450 nm (PCSK9 bound to LDLR) [6]: 0.94 OD450 nm | OD450 nm [7]: 0.21 OD450 nm | OD450 nm (PCSK9 bound to LDLR) [8]: 0.7 OD450 nm | OD450 nm [9]: 2.91 OD450 nm | OD450 nm [10]: 1.25 OD450 nm | OD450 nm [11]: 0.17 OD450 nm | OD450 nm (PCSK9 bound to LDLR) [12]: 1.2 OD450 nm | OD450 nm [13]: 2.91 OD450 nm | OD450 nm [14]: 0.21 OD450 nm | OD450 nm [15]: 0.35 OD450 nm | OD450 nm [16]: 0.2 OD450 nm | OD450 nm [17]: 0.18 OD450 nm | OD450 nm [18]: 2.93 OD450 nm | OD450 nm [19]: 0.27 OD450 nm | OD450 nm [20]: 2.42 OD450 nm | OD450 nm (PCSK9 bound to LDLR) [21]: 1.26 OD450 nm | OD450 nm [22]: 2.67 OD450 nm | OD450 nm (PCSK9 bound to LDLR) [23]: 1.2 OD450 nm
